# From doi:10.1101/388470 (bioRxiv, 2018)
# T1: Cdc45-5FLAG (S. cerevisiae), Q08032
# T1 chain: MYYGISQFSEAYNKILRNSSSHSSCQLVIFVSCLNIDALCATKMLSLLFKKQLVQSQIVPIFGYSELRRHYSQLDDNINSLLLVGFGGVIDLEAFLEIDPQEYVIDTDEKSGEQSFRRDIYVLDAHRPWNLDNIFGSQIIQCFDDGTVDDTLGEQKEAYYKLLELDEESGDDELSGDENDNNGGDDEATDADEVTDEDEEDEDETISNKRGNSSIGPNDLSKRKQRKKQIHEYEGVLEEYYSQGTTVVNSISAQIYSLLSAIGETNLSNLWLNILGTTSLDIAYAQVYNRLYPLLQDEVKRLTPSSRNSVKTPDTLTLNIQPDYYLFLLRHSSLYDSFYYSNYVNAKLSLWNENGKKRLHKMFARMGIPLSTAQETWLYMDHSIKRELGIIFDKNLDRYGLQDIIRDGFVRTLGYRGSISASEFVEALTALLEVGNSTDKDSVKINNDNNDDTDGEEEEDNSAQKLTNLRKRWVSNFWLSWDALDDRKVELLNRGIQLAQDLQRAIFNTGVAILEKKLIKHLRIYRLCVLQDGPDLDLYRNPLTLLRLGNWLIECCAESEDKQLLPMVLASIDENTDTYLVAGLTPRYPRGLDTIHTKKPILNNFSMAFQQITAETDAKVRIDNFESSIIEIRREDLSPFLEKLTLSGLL
# How the values were obtained:
# [1] = biological target: T1, Cdc45-5FLAG (S. cerevisiae), Q08032; assay: co-sedimentation; details: remark: other sources report otherwise
# co-sedimentation = biological target: the molecule itself; assay: co-sedimentation
Binder,stoichiometry N [1],stoichiometry N (co-sedimentation)
"Cdc45-5FLAG, Q08032 1-650 (natural protein) MYYGISQFSEAYNKILRNSSSHSSCQLVIFVSCLNIDALCATKMLSLLFKKQLVQSQIVPIFGYSELRRHYSQLDDNINSLLLVGFGGVIDLEAFLEIDPQEYVIDTDEKSGEQSFRRDIYVLDAHRPWNLDNIFGSQIIQCFDDGTVDDTLGEQKEAYYKLLELDEESGDDELSGDENDNNGGDDEATDADEVTDEDEEDEDETISNKRGNSSIGPNDLSKRKQRKKQIHEYEGVLEEYYSQGTTVVNSISAQIYSLLSAIGETNLSNLWLNILGTTSLDIAYAQVYNRLYPLLQDEVKRLTPSSRNSVKTPDTLTLNIQPDYYLFLLRHSSLYDSFYYSNYVNAKLSLWNENGKKRLHKMFARMGIPLSTAQETWLYMDHSIKRELGIIFDKNLDRYGLQDIIRDGFVRTLGYRGSISASEFVEALTALLEVGNSTDKDSVKINNDNNDDTDGEEEEDNSAQKLTNLRKRWVSNFWLSWDALDDRKVELLNRGIQLAQDLQRAIFNTGVAILEKKLIKHLRIYRLCVLQDGPDLDLYRNPLTLLRLGNWLIECCAESEDKQLLPMVLASIDENTDTYLVAGLTPRYPRGLDTIHTKKPILNNFSMAFQQITAETDAKVRIDNFESSIIEIRREDLSPFLEKLTLSGLL",2,
Psf2-5FLAG (natural protein) MSLPAHLQQTFSPEEIQFIVENEPIKIFPRITTRQKIRGDDRGTGNHTRWQLITTDDKALNNMVAMRSTEVVLWIALLLKQQSKCSIVAPQWLTTKELDRKIQYEKTHPDRFSELPWNWLVLARILFNKAKDDFHDPIHELRGKIQDLREIRQIKVLKGLKYLNESHLQLDNLSLLEINELRPFITEIMDKLREIHTASLTAGTENDEEEFNI,,2
